The target of experiment [1] is human big endothelin-1 (human) (UniProt P05305).
Experiment [2] has the same target. This is another data set of the same source.
For experiment [3] the target is unchanged. The source holds these as a separate data set.

UniProt P05305, sequence (P05305 53-90 limits assumed): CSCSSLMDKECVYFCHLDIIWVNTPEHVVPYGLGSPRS

Molecule “endothelin converting enzyme (ECE-1) purified from FBHE bovine endothelial cells” displayed a Spec. activity [µU/mg] in experiment [1] of 15100 µU/mg.

In experiment [2], “secreted human ECE (extracellular domain of human ECE fused to the signal peptide of human t-PA) (enzyme)” had a volume-based activity of the secreted ECE (µunits/ml of cell culture medium) of less than 10.

B1: recombinant membrane-bound human ECE (complete human ECE expressed from pcDNA3neo in mammalian cells, colony 38) (enzyme)
chain: MSTYKRATLDEEDLVDSLSEGDAYPNGLQVNFHSPRSGQRCWAARTQVEKRLVVLVVLLAAGLVACLAALGIQYQTRSPSVCLSEACVSVTSSILSSMDPTVDPCHDFFSYACGGWIKANPVPDGHSRWGTFSNLWEHNQAIIKHLLENSTASVSEAERKAQVYYRACMNETRIEELRAKPLMELIERLGGWNITGPWAKDNFQDTLQVVTAHYRTSPFFSVYVSADSKNSNSNVIQVDQSGLGLPSRDYYLNKTENEKVLTGYLNYMVQLGKLLGGGDEEAIRPQMQQILDFETALANITIPQEKRRDEELIYHKVTAAELQTLAPAINWLPFLNTIFYPVEINESEPIVVYDKEYLEQISTLINTTDRCLLNNYMIWNLVRKTSSFLDQRFQDADEKFMEVMYGTKKTCLPRWKFCVSDTENNLGFALGPMFVKATFAEDSKSIATEIILEIKKAFEESLSTLKWMDEETRKSAKEKADAIYNMIGYPNFIMDPKELDKVFNDYTAVPDLYFENAMRFFNFSWRVTADQLRKAPNRDQWSMTPPMVNAYYSPTKNEIVFPAGILQAPFYTRSSPKALNFGGIGVVVGHELTHAFDDQGREYDKDGNLRPWWKNSSVEAFKRQTECMVEQYSNYSVNGEPVNGRHTLGENIADNGGLKAAYRAYQNWVKKNGAEHSLPTLGLTNNQLFFLGFAQVWCSVRTPESSHEGLITDPHSPSRFRVIGSLSNSKEFSEHFRCPPGSPMNPPHKCEVW
In experiment [3], B1 displayed a Spec. activity (µU/mg protein) (µU/mg protein) of 12000.

(Values after patent publication US6066502.)
